Entries after “also recorded” stand apart in the source; their conditions may differ.
Columns and labels:
[1] = tested on: soluble plasma hyaluronan; test: Soluble plasma hyaluronan ELISA in PC3 tumor-bearing mice; format: in vivo; settings: PEGPH20 4.5 mg/kg alone or + dexamethasone (high or low dose)
Description: Plasma samples were additionally used to measure soluble plasma hyaluronan in the control group and each of the treatment groups (R&D Systems Catalog DY3614; ELISA assay). In the vehicle control group, the plasma hyaluronan levels ranged from 800,000 to 900,000 ng/mL.

[2] = tested on: pericellular and stromal HA; test: Histochemical detection of HA in patient tumor biopsies; format: in vivo, human; settings: colon cancer patient, liver metastasis, 1.6 μg/kg twice weekly + dexamethasone, post vs archived pre biopsy
Description: An archived pre-dose biopsy (pre biopsy) obtained in 2007 (3.5 years prior to the PEGPH20 study) and a post-PEGPH20 Cycle 1 (3 days after the last dose) biospsy (Post biopsy) were obtained from a colon cancer patient with liver metastases. The patient post-treatment biopsy was obtained after one cycle of PEGPH20 treatment at 1.6 μg/kg on a twice weekly schedule with dexamethasone co-treatment.
Briefly, the tumor biopsies were fixed in normal buffered formalin (NBF) and 5 μm sections cut and stained using a biotin labeled hyaluronan binding protein (HABP-bio) (Seikagaku, Japan). After washing to remove the primary reagent, a labeled secondary reagent was used. Nuclei were counter-stained using a DAPI (4′,6-diamidino-2-phenylindole) reagent. Micrographs were captured via a Nikon Eclipse TE2000U inverted fluorescent microscope coupled to a Insight FireWire digital camera (Diagnostic Instruments, Michigan) or ZEISS overhead scope (Carl Zeiss, Inc.) that has the same imaging system.

[3] = Dexamethasone premedication and PEGPH20-induced musculoskeletal observations
Description: In one study, four naïve male beagle dogs were orally dosed with 4 mg/dose dexamethasone twice a day on the day of PEGPH20 administration. The first dexamethasone dose was given orally (PO) immediately before PEGPH20 intravenous (IV) administration. The second dexamethasone dose was given orally ˜8 hours later. On day 1, one dog was dosed with 3040 U/kg (0.08 mg/kg) PEGPH20 after Dexamethasone. Twenty four hours later (day 2), a second dog was dosed with 5700 U/kg (0.15 mg/kg) PEGPH20 after Dexamethasone. Twenty four hours later (day 3), a third dog was dosed with 11400 U/kg (0.3 mg/kg) PEGPH20 after Dexamethasone. Twenty four hours later (day 4), a fourth dog was dosed with 38000 U/kg (1.0 mg/kg) PEGPH20 after Dexamethasone. Blood was collected pre-PEGPH20 administration, and 0.5 hr, 4 h and 24 h post-PEGPH20 administration.
PEGPH20 was administered IV with a 5 mL bolus injection via percutaneous needle puncture of the cephalic vein on study Days 1, 2 and/or 5. Dexamethasone was administered orally immediately before the PEGPH20 injection and approximately 8 hours post injection. All animals were re-dosed 3 days after the first injection except those in the PEGPH20 alone treatment group, which were not re-dosed.
Animals treated with only one dose of PEGPH20 were evaluated at 96 hours, 120 hours, 6, 7, 8, and 9 days post-dose.

[4] = tested on: hyaluronan; test: Hyaluronan staining of BxPC3 tumor sections; format: in vivo, human (xenograft in athymic female nude mice); settings: Day 18, dexamethasone low or high dose, PEGPH20 4.5 mg/kg, or both
Description: (§1) Tumor tissues from the two satellite mice from all 6 treatment groups in Example 9B.1 above, were harvested by tissue biopsy on Day 18 and stained for the presence of hyaluronan. Tumor biopsies were fixed in 10% NBF for 48 hours, embedded in paraffin, and sectioned. Samples were probed for hyaluronan using a biotinylated HA-binding protein (HABP), then probed with FITC-labeled streptavidin for detection. The cell nuclei were counterstained with DAPI (4′,6-diamidino-2-phenylindole) reagent. Micrographs were then captured using a Zeiss Microscope (Thornwood, N.Y.) coupled with the Spot imaging program (Diagnostic Instruments, Inc).
(§2) Hyaluronan expression in the sections was evaluated by the level of green fluorescent intensity in the sections.

[5] = tested on: tumor regions; test: Apparent diffusion coefficient MRI (ADC-MRI) of tumors; format: in vivo, human
Description: Scans were performed pre-treatment and post-treatment.
Apparent diffusion coefficient magnetic Resonance imaging (ADC-MRI) measures the volume of water that has moved across the cell membrane based upon a calculation derived from the pre- and post-treatment scans. ADC-MRI scans were completed for a total of 10 of the 14 patients in the study described in Example 6 and 4 of the 5 patients in the study described in Example 10. […] Increased ADC values are consistent with the mechanism of action of PEGPH20.

[6] = tested on: pericellular hyaluronan; test: Hyaluronan staining of PC3 tumor sections; format: in vivo, human (xenograft in athymic male nude mice); settings: Day 14, dexamethasone low or high dose, PEGPH20 4.5 mg/kg, or both
Description: as §1, with “9A.1” for “9B.1”, “14” for “18”
as §2

[7] = Tolerability / musculoskeletal response to PEGPH20 in beagle dogs; format: in vivo, beagle dog
[8] = tested on: hyaluronan present in the circulation; test: Plasma HA and catabolites (disaccharide assay) in patients; format: in vivo, human
Description: This Example describes a method for the determination of the HA-disaccharide content in plasma. The method employs the hydrolysis of HA with Chondroitinase ABC to release the HA-disaccharides, derivatize them with 2-amino acridone (AMAC) and analyze them on a reverse-phase HPLC coupled with fluorescence detection. Quantitation of the HA-disaccharides is accomplished by comparison with HA-disaccharide standards.
Next, the sample was hydrolyzed. The sample (e.g. plasma) was prepared by taking approximately 100 μg of protein in a polypropylene tube and adjusting the volume to 340 μl with water. A matrix blank also was prepared by taking dilution buffer (1.59 g HEPES, 5.07 g NaCl, 1800 mL water, pH 7.0) equal to the volume of the sample and adjusting the volume to 340 μl. Hydrolysis of the samples and matrix blank were effected by adding 60 μl of TFA to the sample tube and matrix blank tube and the contents were mix and incubated at 100° C. for 4 hours. The vials were allowed to cool to room temperature. The vials were evaporated to dryness using a speed vac. Then, 300 μl of water was added to each tube and vortexed to resuspend the samples. […]
The enzymatic activity of PEGPH20 was measured by monitoring concentrations of hyaluronan present in the circulation.

[9] = all scanned patients of both studies

B1: PEGPH20 (protein)
chain: LNFRAPPVIPNVPFLWAWNAPSEFCLGKFDEPLDMSLFSFIGSPRINATGQGVTIFYVDRLGYYPYIDSITGVTVNGGIPQKISLQDHLDKAKKDITFYMPVDNLGMAVIDWEEWRPTWARNWKPKDVYKNRSIELVQQQNVQLSLTEATEKAKQEFEKAGKDFLVETIKLGKLLRPNHLWGYYLFPDCYNHHYKKPGYNGSCFNVEIKRNDDLSWLWNESTALYPSIYLNTQQSPVAATLYVRNRVREAIRVSKIPDAKSPLPVFAYTRIVFTDQVLKFLSQDELVYTFGETVALGASGIVIWGTLSIMRSMKSCLLLDNYMETILNPYIINVTLAAKMCSQVLCQEQGVCIRKNWNSSDYLHLNPDNFAIQLEKGGKFTVRGKPTLEDLEQFSEKFYCSCYSTLSCKEKADVKDTDAVDVCIADGVCIDAFLKPPMETEEPQIFY
plasma hyaluronan [1]: no detectable (below limit of quantitation) hyaluronan
change in tumor HA by histochemical staining [2]: decrease in pericellular and stromal HA levels
complete resolution of musculoskeletal observations post-dose ([3]; PEGPH20 0.3 mg/kg IV alone): approximately 72 hours
onset of musculoskeletal observations post-dose ([3]; PEGPH20 0.3 mg/kg IV alone): approximately 10 hours
musculoskeletal observations ([3]; PEGPH20 11400 Units/kg (0.3 mg/kg) IV alone): moderate to severe musculoskeletal observations
hyaluronan staining of tumor sections [4]: almost completely absent
Change in Tumor ADC-MRI from baseline ([5]; 0.5 μg/kg, 2x/wk, scan D3): no change
Change in Tumor ADC-MRI from baseline ([5]; 0.5 μg/kg, 21 day cycle, individual patients, scan D3 or D4): decrease in lymph nodes; also recorded: increase
Change in Tumor ADC-MRI from baseline ([5]; 0.75 μg/kg, 21 day cycle, individual patients, scan D3 (D30)): increase; also recorded: no change
Change in Tumor ADC-MRI from baseline ([5]; 1.0 μg/kg, 21 day cycle, scan D5): increase
Change in Tumor ADC-MRI from baseline ([5]; 1.5 μg/kg, 21 day cycle, scan D3): no change
Change in Tumor ADC-MRI from baseline ([5]; 50 μg/kg, scan D4): no change
patients with ADC values decreased [5, 9]: 2 of 14
patients with ADC values unchanged [5, 9]: 5 of 14
patients with increases in ADC-MRI [5, 9]: 7 of 14
pericellular hyaluronan staining of tumor sections [6]: almost completely absent
reaction immediately post-dose after a break in dosing ([7]; 3040 Units/kg IV on Day 17, 26 or 33): systemic anaphylactoid-like reaction
musculoskeletal effects after re-dose ([7]; 3040 Units/kg IV on Day 59, antibody-positive dogs): No musculoskeletal effects were observed
musculoskeletal responses, repeat daily dosing ([7]; Day 7 through Day 9, 3800 to 15200 Units/kg): No musculoskeletal responses were observed
musculoskeletal responses, repeat daily dosing ([7]; Day 12, 60800 Units/kg (1.6 mg/kg), dog 288 IV): reduced mobility 2 hours after the 60800 Units/kg (1.6 mg/kg) dose with complete recovery within 10 hours post-dose
musculoskeletal responses, repeat daily dosing ([7]; Days 4 through 6, 1520 to 3040 Units/kg, IV or SC): reduced mobility (reduced ability to walk or stand), overall decreased activity, and muscle stiffness in the neck, back and extremities upon palpation; also recorded: the severity of the responses decreased from Day 4 to Day 6
resolution of musculoskeletal responses ([7]; single dose 3040 U/kg on Day 1, three dogs): ≤ 4 days
time of musculoskeletal response post-dose ([7]; single dose 3040 U/kg, IV or SC, three dogs): ≤ 23 h
musculoskeletal observations ([7]; single dose 3040 Units/kg (0.08 mg/kg), IV or SC): reduced mobility (reduced ability to walk or stand) and tighness of muscles of the neck, back and extremities upon palpation; also recorded: reduced mobility (reduced ability to walk or stand), overall decreased activity, and muscle stiffness in the neck, back and extremities upon palpation
musculoskeletal observations on the following day ([7]; single dose of either 0.08 mg/kg or 0.3 mg/kg): reduced walking ability, difficulty standing, decreased activity and tightness of the muscles of the neck, back and extremities
histopathologic changes of knee joint or skeletal muscle (IV twice weekly, 4 weeks): no associated histopathologic changes
clinical signs (monkeys administered PEGPH20): hypoactivity, lethargy, disorientation, hunched posture and a decrease in limb joint angle
HA catabolite levels over a week ([8]; 0.5 μg/kg to 1.5 μg/kg, 12 patients): increased in a dose-dependent manner
plasma concentrations of hyaluronan ([8]; single 50 μg/kg dose): increased significantly

Source: patent US9878046B2, “Adverse side-effects associated with administration of an anti-hyaluronan agent and methods for ameliorating or preventing the side-effects” (Halozyme, Inc., priority 2010, dated 2018)
